Results: patent US20240301086A1 (APTEVO RESEARCH AND DEVELOPMENT, published 2024)

T1: mIgG Fc-cyno PSMA ECD (cynomolgus monkey)
T1 construct: Called PSMA dimer in the SPR method; also called mFc-Cyno PSMA ECD; murine Fc-tagged cyno PSMA ECD
T1 chain: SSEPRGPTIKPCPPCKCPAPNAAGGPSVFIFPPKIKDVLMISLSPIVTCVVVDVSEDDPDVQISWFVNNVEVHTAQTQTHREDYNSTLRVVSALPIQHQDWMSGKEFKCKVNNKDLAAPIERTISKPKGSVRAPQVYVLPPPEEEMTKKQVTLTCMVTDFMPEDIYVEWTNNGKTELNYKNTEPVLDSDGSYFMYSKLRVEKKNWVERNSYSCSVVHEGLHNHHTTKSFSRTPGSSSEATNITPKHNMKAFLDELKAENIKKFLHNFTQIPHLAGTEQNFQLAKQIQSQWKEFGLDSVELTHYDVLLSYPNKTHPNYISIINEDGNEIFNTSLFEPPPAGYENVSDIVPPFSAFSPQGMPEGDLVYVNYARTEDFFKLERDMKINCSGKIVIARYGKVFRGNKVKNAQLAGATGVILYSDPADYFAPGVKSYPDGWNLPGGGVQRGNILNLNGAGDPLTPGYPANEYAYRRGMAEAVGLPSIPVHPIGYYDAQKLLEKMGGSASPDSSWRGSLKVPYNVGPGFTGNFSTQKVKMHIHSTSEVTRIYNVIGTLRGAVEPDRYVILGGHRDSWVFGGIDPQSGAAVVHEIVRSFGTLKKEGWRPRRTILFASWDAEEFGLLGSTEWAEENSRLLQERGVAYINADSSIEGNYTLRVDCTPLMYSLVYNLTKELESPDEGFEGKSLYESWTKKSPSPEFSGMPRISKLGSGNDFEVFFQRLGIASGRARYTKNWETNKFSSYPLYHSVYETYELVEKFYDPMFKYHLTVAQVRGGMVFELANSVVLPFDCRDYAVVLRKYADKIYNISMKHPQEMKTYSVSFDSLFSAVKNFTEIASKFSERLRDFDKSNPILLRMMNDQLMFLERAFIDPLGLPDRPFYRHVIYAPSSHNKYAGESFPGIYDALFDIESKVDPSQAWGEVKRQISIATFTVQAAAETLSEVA


Tests used:
[1] = biological target: T2, Full-length Human PSMA (TSC435), on cells (human, UniProt Q04609 1-750); test: flow cytometry on C4-2B cells, PE goat anti-human IgG Fc secondary, MFI (median)
T2 construct: also called CHOK1SV/huPSMA; PSMA on C4-2B, 22RV1, LNCaP, MDA-PCa-2b cells
Experimental: The PSMA-binding domain PSMA01023 was evaluated in several different structural formats, including an alternative Fc region with different mutations to eliminate effector function. The PSMA01023 binding domain was configured in scFv-Fc format in VL-VH (PSMA01036) and VH-VL (PSMA01037) orientations and in Fc-scFv format in VL-VH (PSMA01040) and VH-VL (PSMA01041) orientations. These molecules were evaluated for the impact of the orientation of the scFv domains (VH-VL versus VL-VH) and position on the Fc (N- vs. C-terminus) on binding to PSMA (+) tumor cells.
C4-2B and 22RV1 cells were labelled at approximately 100,000 cells per well, in 96-well plates, with serial dilutions of PSMA-binding constructs ranging from of 0.1 to 300 nM for 30 min on ice, followed by washes and incubation with PE-labeled minimum cross species reactive secondary antibody, goat anti-human IgG Fcγ, F(ab′)2 (Jackson Laboratory) for 30 minutes on ice. Washes and incubation were done in staining buffer (PBS with 0.2% BSA and 2 mM EDTA). Cells were collected using a BDM LSRII or a BD FACSymphony™ flow cytometer (BD Biosciences) and analyzed by FlowJo flow cytometry analysis software. Median fluorescence intensity (MFI) of bound molecules on cells was determined after exclusion of doublets. Graphs were plotted using GraphPad Prism 7®.

[2] = biological target: T3, human CD3ε in the TCR/CD3 complex on Jurkat cells (human, UniProt P07766 23-207); test: flow cytometry on Jurkat cells, MFI (median)
T3 construct: whole, on cells; On the cells it stands in the whole TCR/CD3 complex; also called CD3 (+) cells; CD3-expressing Jurkat cells

[3] = biological target: T4, Human PSMA ECD-AFH (TSC033), recombinant dimeric PSMA ECD (human, UniProt Q04609 44-750); test: SPR (Biacore T200), human PSMA dimer ECD 10X His (TSC033), 1:1 fit
T4 construct: SEC-purified dimer; also called HuPSMA-AFH; Avi-His-Human PSMA ECD

mIgG Fc-cyno PSMA ECD = biological target: T1, mIgG Fc-cyno PSMA ECD; test: SPR (Biacore T200), bispecific amine-coupled, mFc-PSMA dimer 1-81 nM as analyte, 1:1 fit
Experimental: (§1) SPR studies were performed on a subset of bispecific constructs binding to Human and cynomolgus primate PSMA ectodomain (ECD) fused to the c-terminus of a murine IgG1 Fc region. These experiments were conducted at 25° C. in dPBS (Gibco, 14040-133) with 0.2% BSA buffer on a Biacore T200 system. Bispecific constructs were immobilized at a density of ˜2,000-4,000 response units (RU) onto individual flow cells of a CM5 research-grade sensor chip (GE) by standard amine coupling chemistry, leaving one flow cell surface unmodified as the reference. Using a multi-cycle kinetics mode, a buffer blank and […] different concentrations of the PSMA dimer ranging from 1 nM to 81 nM in dPBS with 0.2% BSA were sequentially injected through each flow cell at 30 μL/min for 300 seconds followed by a 600 second dissociation phase. Regeneration was achieved by injection of 10 mM glycine pH 2.0 at a flow rate of 30 μL/min for 40 seconds followed by dPBS with 0.2% BSA buffer stabilization for 1 min.
(§2) Sensorgrams obtained from kinetic SPR measurements were analyzed by the double subtraction method. The signal from the reference flow cell was subtracted from the analyte binding response obtained from flow cells with captured ligands. The buffer blank response was then subtracted from analyte binding responses and the final double-referenced data were analyzed with Biacore T200 Evaluation software (2.0, GE), globally fitting data to derive kinetic parameters. All sensorgrams were fitted using a simple one-to-one binding model.

mIgG Fc-human PSMA ECD = biological target: T5, mIgG Fc-human PSMA ECD (human); test: as above
T5 construct: Called PSMA dimer in the SPR method; also called mFc-Hu PSMA ECD; murine Fc-tagged human PSMA ECD
Experimental: as §1, §2

T2 sequence (Q04609 whole entry): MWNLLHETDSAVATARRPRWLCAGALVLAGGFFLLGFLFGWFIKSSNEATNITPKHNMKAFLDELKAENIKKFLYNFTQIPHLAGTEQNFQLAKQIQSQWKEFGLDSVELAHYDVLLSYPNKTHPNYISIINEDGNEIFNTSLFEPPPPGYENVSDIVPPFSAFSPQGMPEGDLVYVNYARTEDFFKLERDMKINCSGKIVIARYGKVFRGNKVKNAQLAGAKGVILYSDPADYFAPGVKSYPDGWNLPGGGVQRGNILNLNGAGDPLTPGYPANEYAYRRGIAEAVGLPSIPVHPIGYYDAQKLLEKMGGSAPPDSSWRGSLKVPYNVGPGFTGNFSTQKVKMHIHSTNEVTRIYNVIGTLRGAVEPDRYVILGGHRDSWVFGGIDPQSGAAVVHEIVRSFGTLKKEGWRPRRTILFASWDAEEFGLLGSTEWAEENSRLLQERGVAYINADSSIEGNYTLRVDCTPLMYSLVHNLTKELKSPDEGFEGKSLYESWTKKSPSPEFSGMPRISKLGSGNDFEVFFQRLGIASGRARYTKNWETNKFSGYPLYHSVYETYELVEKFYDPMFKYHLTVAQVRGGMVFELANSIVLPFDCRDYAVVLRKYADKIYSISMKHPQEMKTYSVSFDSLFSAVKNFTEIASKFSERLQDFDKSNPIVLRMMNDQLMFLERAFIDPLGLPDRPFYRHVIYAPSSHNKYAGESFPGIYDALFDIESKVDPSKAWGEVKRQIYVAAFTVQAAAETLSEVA
T3 sequence (P07766 23-207, one chain of several): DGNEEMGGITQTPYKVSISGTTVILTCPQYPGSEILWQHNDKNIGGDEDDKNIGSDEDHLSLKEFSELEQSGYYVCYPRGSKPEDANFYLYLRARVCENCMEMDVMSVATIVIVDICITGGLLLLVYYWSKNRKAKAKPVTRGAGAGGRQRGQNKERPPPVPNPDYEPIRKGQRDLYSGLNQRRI
T4 sequence (Q04609 other isoform, or with tags, fused parts or gaps): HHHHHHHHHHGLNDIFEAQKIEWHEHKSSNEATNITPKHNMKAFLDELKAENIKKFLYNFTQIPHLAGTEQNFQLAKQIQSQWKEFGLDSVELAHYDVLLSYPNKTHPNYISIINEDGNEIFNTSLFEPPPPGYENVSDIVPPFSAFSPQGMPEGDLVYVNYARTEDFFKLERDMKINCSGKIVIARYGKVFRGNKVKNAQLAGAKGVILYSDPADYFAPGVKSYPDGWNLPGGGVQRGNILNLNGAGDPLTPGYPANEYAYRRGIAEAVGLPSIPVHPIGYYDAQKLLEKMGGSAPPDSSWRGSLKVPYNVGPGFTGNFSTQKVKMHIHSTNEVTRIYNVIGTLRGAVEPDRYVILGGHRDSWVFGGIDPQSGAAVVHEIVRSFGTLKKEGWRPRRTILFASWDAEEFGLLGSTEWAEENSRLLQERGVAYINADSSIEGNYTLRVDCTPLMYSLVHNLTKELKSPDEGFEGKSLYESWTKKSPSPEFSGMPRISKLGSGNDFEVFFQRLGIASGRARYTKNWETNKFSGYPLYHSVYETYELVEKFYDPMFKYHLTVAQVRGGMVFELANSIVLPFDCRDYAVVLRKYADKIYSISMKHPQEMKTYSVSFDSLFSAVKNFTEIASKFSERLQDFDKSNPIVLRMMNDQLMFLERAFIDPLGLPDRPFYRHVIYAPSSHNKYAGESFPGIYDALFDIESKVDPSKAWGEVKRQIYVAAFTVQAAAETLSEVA

| binding result [1] | binding result [2] | Kd [3] [nM] | Kd (mIgG Fc-cyno PSMA ECD) [nM] | Kd (mIgG Fc-human PSMA ECD) [nM] | Binder |
| --- | --- | --- | --- | --- | --- |
| binds |  |  |  |  | PSMA01041 Fc-linker-anti PSMA scFv (Fc fusion) SSEPKSSDKTHTCPPCPAPPAAAPSVFLFPPKPKDTLMISRTPEVTCVVVDVSHEDPEVKFNWYVDGVEVHNAKTKPREEQYNSTYRVVSVLTVLHQDWLNGKEYKCAVSNKALPAPIEKTISKAKGQPREPQVYTLPPSRDELTKNQVSLTCLVKGFYPSDIAVEWESNGQPENNYKTTPPVLDSDGSFFLYSKLTVDKSRWQQGNVFSCSVMHEALHNHYTQKSLSLSPGGGGSPSQVQLVQSGAEVKKPGASVKVSCKASGYTFTDYYMHWVRQAPGQGLEWMGYFNPYNDYTRYAQKFQGRVTMTRDTSTSTVYMELSSLRSEDTAVYYCARSDGYYDAMDYWGQGTTVTVSSGGGGSGGGGSGGGGSGGGGSDIQMTQSPSTLSASVGDRVTITCRASKSISKYLAWYQQKPGKAPKLLIHSGSSLESGVPSRFSGSGSGTEFTLTISSLQPDDFATYYCQQHIEYPWTFGQGTKVEIKR |
|  | binds | 5.2 | 6.2 | 4.1 | PSMA01116 Anti-PSMA scFv x Fc x linker x Anti CD3 scFv; Anti PSMA scFv x Fc (bispecific antibody, Heterodimer, bivalent for PSMA and monovalent for CD3; also called PSM01116) chain 1: QVQLVQSGAEVKKPGASVKVSCKASGYTFTDYYMHWVRQAPGQGLEWMGYFNPYNDYTRYAQKFQGRVTMTRDTSTSTVYMELSSLRSEDTAVYYCARSDGYYDAMDYWGQGTTVTVSSGGGGSGGGGSGGGGSGGGGSDIQMTQSPSSLSASVGDRVTITCRASKSISKYLAWYQQKPGKAPKLLIHSGSSLESGVPSRFSGSGSGTEFTLTISSLQPDDFATYYCQQHIEYPWTFGQGTKVEIKEPKSSDKTHTCPPCPAPPAAAPSVFLFPPKPKDTLMISRTPEVTCVVVDVSHEDPEVKFNWYVDGVEVHNAKTKPREEQYNSTYRVVSVLTVLHQDWLNGKEYKCAVSNKALPAPIEKTISKAKGQPREPQVYTLPPSRDELTKNQVSLWCLVKGFYPSDIAVEWESNGQPENNYKTTPPVLDSDGSFFLYSKLTVDKSRWQQGNVFSCSVMHEALHNHYTQKSLSLSPGGGGSPSQVQLVQSGAEVKKPGASVKVSCKASGYTFTRSTMHWVRQAPGQGLEWIGYINPSSAYTNYAQKFQGRVTLTADKSTSTAYMELSSLRSEDTAVYYCASPQVHYDYNGFPYWGQGTLVTVSSGGGGSGGGGSGGGGSGGGGSDIQMTQSPSSLSASVGDRVTITCRASSSVSYMNWYQQKPGKAPKRWIYDSSKLASGVPSRFSGSGSGTDFTLTISSLQPEDFATYYCQQWSRNPPTFGQGTKVEIK chain 2: QVQLVQSGAEVKKPGASVKVSCKASGYTFTDYYMHWVRQAPGQGLEWMGYFNPYNDYTRYAQKFQGRVTMTRDTSTSTVYMELSSLRSEDTAVYYCARSDGYYDAMDYWGQGTTVTVSSGGGGSGGGGSGGGGSGGGGSDIQMTQSPSSLSASVGDRVTITCRASKSISKYLAWYQQKPGKAPKLLIHSGSSLESGVPSRFSGSGSGTEFTLTISSLQPDDFATYYCQQHIEYPWTFGQGTKVEIKEPKSSDKTHTCPPCPAPPAAAPSVFLFPPKPKDTLMISRTPEVTCVVVDVSHEDPEVKFNWYVDGVEVHNAKTKPREEQYNSTYRVVSVLTVLHQDWLNGKEYKCAVSNKALPAPIEKTISKAKGQPREPQVYTLPPSRDELTKNQVSLSCAVKGFYPSDIAVEWESNGQPENNYKTTPPVLDSDGSFFLVSKLTVDKSRWQQGNVFSCSVMHEALHNHYTQKSLSLSPG |
| binds |  |  |  |  | PSMA01040 Fc-linker anti PSMA scFv (Fc fusion) SSEPKSSDKTHTCPPCPAPPAAAPSVFLFPPKPKDTLMISRTPEVTCVVVDVSHEDPEVKFNWYVDGVEVHNAKTKPREEQYNSTYRVVSVLTVLHQDWLNGKEYKCAVSNKALPAPIEKTISKAKGQPREPQVYTLPPSRDELTKNQVSLTCLVKGFYPSDIAVEWESNGQPENNYKTTPPVLDSDGSFFLYSKLTVDKSRWQQGNVFSCSVMHEALHNHYTQKSLSLSPGGGGSPSDIQMTQSPSTLSASVGDRVTITCRASKSISKYLAWYQQKPGKAPKLLIHSGSSLESGVPSRFSGSGSGTEFTLTISSLQPDDFATYYCQQHIEYPWTFGQGTKVEIKGGGGSGGGGSGGGGSGGGGSQVQLVQSGAEVKKPGASVKVSCKASGYTFTDYYMHWVRQAPGQGLEWMGYFNPYNDYTRYAQKFQGRVTMTRDTSTSTVYMELSSLRSEDTAVYYCARSDGYYDAMDYWGQGTTVTVSSR |
